Reference: patent publication US9938354B2, “Lin28-mediated control of let-7 biogenesis” (Children's Medical Center Corporation, priority 2011, dated 2018)

How the values were obtained:
TUTase = target: T1, TUTase (Homo sapiens, UniProt Q5TAX3); experiment: In vitro TUTase activity (uridylation) assay; format: biochemical; details: chain terminator; prevents oligo-U tail elongation
T1 construct: Flag; made in house; host or cells: HEK293 / HEK293T cells (transient transfection, anti-Flag M2 purification)
T1 sequence (Q5TAX3 whole entry): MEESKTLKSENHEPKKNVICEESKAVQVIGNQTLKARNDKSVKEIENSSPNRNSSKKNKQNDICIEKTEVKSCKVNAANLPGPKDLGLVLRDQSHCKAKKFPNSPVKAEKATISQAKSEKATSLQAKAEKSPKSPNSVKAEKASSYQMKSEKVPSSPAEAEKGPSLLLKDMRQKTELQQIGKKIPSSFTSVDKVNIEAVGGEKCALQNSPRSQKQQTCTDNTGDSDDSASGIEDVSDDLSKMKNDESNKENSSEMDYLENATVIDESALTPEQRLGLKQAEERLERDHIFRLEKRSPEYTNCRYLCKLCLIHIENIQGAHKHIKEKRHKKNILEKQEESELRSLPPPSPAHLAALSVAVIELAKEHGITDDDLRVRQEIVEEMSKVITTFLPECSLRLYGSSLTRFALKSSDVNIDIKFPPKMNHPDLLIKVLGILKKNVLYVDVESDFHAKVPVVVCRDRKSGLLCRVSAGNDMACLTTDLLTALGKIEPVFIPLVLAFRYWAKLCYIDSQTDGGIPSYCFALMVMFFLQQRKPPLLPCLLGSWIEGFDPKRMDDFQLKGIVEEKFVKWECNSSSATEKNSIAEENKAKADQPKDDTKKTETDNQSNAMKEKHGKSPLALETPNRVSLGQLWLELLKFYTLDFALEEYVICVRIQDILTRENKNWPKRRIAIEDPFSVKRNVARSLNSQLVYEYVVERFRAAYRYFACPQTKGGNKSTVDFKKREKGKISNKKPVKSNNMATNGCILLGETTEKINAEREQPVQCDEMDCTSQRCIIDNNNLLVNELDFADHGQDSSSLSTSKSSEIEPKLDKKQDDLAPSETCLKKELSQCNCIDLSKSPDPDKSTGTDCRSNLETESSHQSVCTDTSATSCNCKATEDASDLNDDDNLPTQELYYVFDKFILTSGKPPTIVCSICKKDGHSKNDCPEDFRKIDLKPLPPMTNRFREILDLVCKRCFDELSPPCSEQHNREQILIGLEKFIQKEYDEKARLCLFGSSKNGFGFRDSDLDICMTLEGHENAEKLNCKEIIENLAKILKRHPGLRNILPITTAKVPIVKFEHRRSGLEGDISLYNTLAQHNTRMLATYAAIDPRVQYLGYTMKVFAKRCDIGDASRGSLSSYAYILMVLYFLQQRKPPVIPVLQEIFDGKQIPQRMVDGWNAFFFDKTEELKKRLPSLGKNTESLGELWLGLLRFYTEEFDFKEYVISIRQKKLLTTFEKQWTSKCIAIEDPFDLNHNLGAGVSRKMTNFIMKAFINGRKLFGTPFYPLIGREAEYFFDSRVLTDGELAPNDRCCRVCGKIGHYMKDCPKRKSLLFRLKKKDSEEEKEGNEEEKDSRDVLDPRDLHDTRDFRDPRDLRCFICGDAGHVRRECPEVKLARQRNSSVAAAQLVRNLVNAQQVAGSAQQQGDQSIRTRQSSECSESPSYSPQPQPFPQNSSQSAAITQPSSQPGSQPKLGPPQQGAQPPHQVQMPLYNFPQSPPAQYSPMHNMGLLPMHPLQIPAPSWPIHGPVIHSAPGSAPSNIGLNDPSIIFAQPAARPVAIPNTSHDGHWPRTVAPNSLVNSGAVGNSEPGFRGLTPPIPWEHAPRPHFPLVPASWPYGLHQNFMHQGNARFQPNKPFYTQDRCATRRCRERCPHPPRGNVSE
Method: In vitro TUTase assays can be employed also. Some of the hit compounds may influence Lin28A-TUTase activity independent of altered expression levels. […] For in vitro uridylation assays, synthetic pre-let-7 RNA is incubated with the affinity-purified proteins in the presence of [α-^32P]-UTP.
A pilot screen is performed on the in vitro assay, using a chemical library that contains a collection of nucleotide analogs. The catalytic activity of the TUTase is inhibited by certain nucleotide analogs, and that the identification of these compounds through HTS will lead to their utility as a novel chemotherapeutic in Lin28A-expressing cancers. There are readily available libraries of such compounds; similar compounds have already been applied in the clinic. […] Then, putative hits from this primary screen are evaluated through secondary screens that include dose curves, in vitro TUTase activity assays, and analyses of let-7 expression by q.RT-PCR on compound-treated cells. […]
Purified proteins were incubated with 4 pmol of unlabelled synthetic RNA (Dharmacon) for 1 hour at 37° C. in a 30 μl reaction mixture containing 100 mM KCl, 20 mM Tris-HCl pH 7.6, 10% Glycerol, 125 nM [α-^32P]UTP, 3.2 mM MgCl2, 40 U RNasin ribonuclease inhibitor (Promega). Products were resolved on 15% denaturing polyacrylamide gels and bands were detected by autoradiography.

pri-let-7g = experiment: EMSA of recombinant Lin28A and Lin28B with pri-let-7g; format: binding; details: in vitro transcribed uniformly labeled pri-let-7g
Method: (§1) Furthermore, Lin28B directly binds and sequesters pri-let-7. To further dissect the mechanism of the Lin28B-mediated let-7 processing block, the relative abilities of recombinant human Lin28A and Lin28B proteins to bind pre-let-7 were compared. (FIG. 7A, 7B and FIG. 8). EMSA was performed with pre-let-7g to analyze the relative binding affinities of the two recombinant proteins. Lin28A and Lin28B have apparent Kds of approximately 0.6 nM and 0.5 nM, respectively (FIG. 7B). Both these estimated Kds are much lower than a previously reported for recombinant mouse Lin28A. This difference is likely due to the omission here of nonspecific yeast tRNA competitor used previously in the binding buffer. Piskounova et al., 2008. […] Collectively, these assays reveal that both Lin28 proteins can directly bind to let-7 precursors with high-affinity in vitro.
(§2) Transformed BL21-CodonPlus® Competent bacteria (Stratagene) were grown to an OD600 nm of 0.4-0.6. […] Band intensities of scanned gels were quantified using ImageJ software and used to calculate percentage of probe bound. […] […] Percent active protein was determined using stoichiometric binding reactions as described in Ryder et al. (2008) Hills equation for specific binding with one site, Y=Bmax*X^h= […]

pre-let-7g = experiment: EMSA of recombinant Lin28A and Lin28B with pre-let-7g; format: binding; details: 0.5 nM 5′-end labeled pre-let-7g, without competitor yeast tRNA, estimated, read-out: apparent Kd
Method: as §1, §2

| Kd (pre-let-7g) [nM] | Molecule | TUTase activity in vitro (TUTase) | binding to pri-let-7g (pri-let-7g) |
| --- | --- | --- | --- |
| – | O=c1ccn([C@H]2CC[C@@H](COP(=O)(O)OP(=O)(O)OP(=O)(O)O)O2)c(=O)[nH]1 [2′,3′-dideoxy-UTP] | effectively inhibits TUTase activity in vitro | – |
| ~0.5 | Lin28B: purified recombinant human His-tagged Lin28B RNA-binding protein (protein, left off: small tags and cut ends) MAEGGASKGGGEEPGKLPEPAEEESQVLRGTGHCKWFNVRMGFGFISMINREGSPLDIPVDVFVHQSKLFMEGFRSLKEGEPVEFTFKKSSKGLESIRVTGPGGSPCLGSERRPKGKTLQKRKPKGDRCYNCGGLDHHAKECSLPPQPKKCHYCQSIMHMVANCPHKNVAQPPASSQGRQEAESQPCTSTLPREVGGGHGCTSPPFPQEARAEISERSGRSPQEASSTKSSIAPEEQSKKGPSVQKRKKT | – | able to bind pri-let-7g with similar affinities |
| ~0.6 | Lin28A: purified recombinant human His-tagged Lin28A RNA-binding protein (protein, UniProt Q9H9Z2 2-209, looked up, His tag) Protein lin-28 homolog A: GSVSNQQFAGGCAKAAEEAPEEAPEDAARAADEPQLLHGAGICKWFNVRMGFGFLSMTARAGVALDPPVDVFVHQSKLHMEGFRSLKEGEAVEFTFKKSAKGLESIRVTGPGGVFCIGSERRPKGKSMQKRRSKGDRCYNCGGLDHHAKECKLPPQPKKCHFCQSISHMVASCPLKAQQGPSAQGKPTYFREEEEEIHSPTLLPEAQN | – | able to bind pri-let-7g with similar affinities |
